These results are taken from patent publication US20110200622A1 (SAMSUNG ELECTRONICS, published 2011).

For the experiment, the target named is T1, human VEGF (R&D systems, Inc.; catalog #293-VE) (human, UniProt P15692-4 27-191).
T1 construct: Bought protein; It was biotinylated for bead panning and coated directly on the plate for the ELISAs; also called human vascular endothelial growth factor; human-derived vascular endothelial growth factor
The experiment can be described thus: phage ELISA on plate-immobilised human VEGF, anti-M13-HRP, OD450. As for the experimental part: E. coli XL1-Blue was infected with each of the phage clones obtained from the biopanning process, and the cells were cultured at 37° C. for 14 hours to obtain a phage solution. The VEGF was added to a 96-well microtiter plate (Nunc), and maintained at 4° C. for 18 hours to immobilize the VEGF on a surface of the plate. The plate with the immobilized VEGF was blocked with skim milk at room temperature for 1 hour, and 100 μl of the phage solution was added to the plate. Then, the phage and the VEGF were incubated together at room temperature for two hours, and washed using a PBS solution containing 0.1% Tween-20. Subsequently, an anti-M13 antibody (GE Healthcare) specifically reactive to the phage and conjugated with horseradish peroxidase (HRP) was added to the resultant product and incubated with each other at room temperature for 1 hour. Then, the plate was washed twice with a PBS solution containing 0.1% Tween-20. Lastly, 100 μl of trimethylbenzidine (TMB) (SIGMA), an HRP substrate, was added to each well of the plate to induce a color reaction. The reaction was stopped by adding 50 μl of 5N H₂SO₄ solution. The OD₄₅₀ value was read on a plate reader (Molecular Devices). […] To determine the base sequence of polynucleotides encoding the polypeptides specifically binding to the VEGF obtained from single clones of the phages, a colony polymerase chain reaction (PCR) was performed using two different primer sets (primer set SEQ ID NOS: 47 and 48; and primer set SEQ ID NOS: 49 and 50). Each primer set was used according to the origin of the Dyax polypeptide library. […] The PCR was performed using a GeneAmp PCR system 9700 (Applied Biosystem), with the following PCR conditions: 30 cycles of 94° C. for 5 minutes, 94° C. for 1 minute, 60° C. for 1 minute, and 72° C. for 1.5 minutes; 72° C. for 10 minutes; and cooling to 4° C. Subsequently, polynucleotide fragments obtained by the PCR reaction were washed and then sequenced (Solgent).
On the technique in general: An ELISA detects its analyte on a solid surface through an enzyme-linked reagent.

T1 sequence (P15692 other isoform, or with tags, fused parts or gaps limits assumed): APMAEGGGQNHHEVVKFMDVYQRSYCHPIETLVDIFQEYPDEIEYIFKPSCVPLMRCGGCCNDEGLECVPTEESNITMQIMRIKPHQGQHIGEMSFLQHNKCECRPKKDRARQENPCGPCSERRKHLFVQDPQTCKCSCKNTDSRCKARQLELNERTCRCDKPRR

In the case of EDYRFYSVW (peptide, not shown: large carriers, Tested as a phage clone in phage ELISA) [polypeptide clone number 13, displayed on phage], the binding result is “binds”.

Take RMGPFGTTH (peptide, not shown: large carriers, Tested as a phage clone in phage ELISA) [polypeptide clone number 40, displayed on phage]: the binding result is recorded as “binds”.

Regarding YGYPWSGT (peptide, not shown: large carriers, Tested as a phage clone in phage ELISA) [polypeptide clone number 34, displayed on phage], the binding result is “binds”.

Take HDYAFYSAW (peptide, not shown: large carriers, Tested as a phage clone in phage ELISA) [polypeptide clone number 44, displayed on phage]: the binding result is “binds”.

In the case of ERTEMFPSAS (peptide, not shown: large carriers, Tested as a phage clone in phage ELISA) [polypeptide clone number 73, displayed on phage], the binding result was “binds”.

As for PIGQRWNRLE (peptide, not shown: large carriers, Tested as a phage clone in phage ELISA) [polypeptide clone number 68, displayed on phage], the binding result is recorded as “binds”.

Regarding PRFEMWHDDK (peptide, not shown: large carriers, Tested as a phage clone in phage ELISA) [polypeptide clone number 55, displayed on phage], the binding result was “binds”.

QRDEMYPHLN (peptide, not shown: large carriers, Tested as a phage clone in phage ELISA) [polypeptide clone number 76, displayed on phage]: the binding result is on record as “binds”.

Regarding MKSAMYHDIR (peptide, not shown: large carriers, Tested as a phage clone in phage ELISA) [polypeptide clone number 82, displayed on phage], the binding result was “binds”.

As for PHQEMWQFES (peptide, not shown: large carriers, Tested as a phage clone in phage ELISA) [polypeptide clone number 78, displayed on phage], the binding result was “binds”.

As to RLFEMYPSLE (peptide, not shown: large carriers, Tested as a phage clone in phage ELISA) [polypeptide clone number 69, displayed on phage], the binding result is reported as “binds”.

SRFEMWNDIS (peptide, not shown: large carriers, Tested as a phage clone in phage ELISA) [polypeptide clone number 70, displayed on phage]: the binding result was “binds”.

For the molecule PRLSMWQNME (peptide, not shown: large carriers, Tested as a phage clone in phage ELISA) [polypeptide clone number 63, displayed on phage], the binding result is listed as “binds”.

As for MHRPWPWDMF (peptide, not shown: large carriers, Tested as a phage clone in phage ELISA) [polypeptide clone number 56, displayed on phage], the binding result is recorded as “binds”.

For the molecule DFLKMYRDEK (peptide, not shown: large carriers, Tested as a phage clone in phage ELISA) [polypeptide clone number 52, displayed on phage], the binding result is recorded as “binds”.

In the case of DRYSQYQSPM (peptide, not shown: large carriers, Tested as a phage clone in phage ELISA) [polypeptide clone number 16, displayed on phage], the binding result was “binds”.

Take DRFSMWKNLE (peptide, not shown: large carriers, Tested as a phage clone in phage ELISA) [polypeptide clone number 66, displayed on phage]: the binding result is recorded as “binds”.

As for QMDRMFPHVG (peptide, not shown: large carriers, Tested as a phage clone in phage ELISA) [polypeptide clone number 65, displayed on phage], the binding result is “binds”.

As for QRDQQYKHMY (peptide, not shown: large carriers, Tested as a phage clone in phage ELISA) [polypeptide clone number 50, displayed on phage], the binding result is given as “binds”.

As to YRGVWGGYF (peptide, not shown: large carriers, Tested as a phage clone in phage ELISA) [polypeptide clone number 42, displayed on phage], the binding result is “binds”.

For FDKYYRDWFI (peptide, not shown: large carriers, Tested as a phage clone in phage ELISA) [polypeptide clone number 83, displayed on phage], the binding result was “binds”.
